From paper PMC12319266, “The Highly Conserved Cys95 Residue of Fructose‐1,6‐Bisphosphatase 1 Mediates the pH‐Driven Structure and Activity of the Enzyme and Photosynthesis” (Plant, Cell & Environment, 2025)
Changes are numbered by the printed parent chain. Names may count otherwise.

Assays:
[1] = biological target: the molecule itself; assay: SEC; Superdex 200 HR 10/30, 50 mM Tris pH 7.0/0.15 M NaCl, 0.3 mL/min; native mass against protein standards
[2] = biological target: the molecule itself; assay: SEC; Superdex 200 HR 10/30, 50 mM Tris pH 8.3/0.15 M NaCl, 0.3 mL/min; native mass against protein standards

B1: recombinant mature wild-type fructose-1,6-bisphosphatase 1 (cFBP1) of Arabidopsis (enzyme, Arabidopsis thaliana, UniProt P25851 60-417, looked up)
chain: AVAADAAETKTAARKKSGYELQTLTGWLLRQEMKGEIDAELTIVMSSISLACKQIASLVQRAGISNLTGVQGAVNIQGEDQKKLDVISNEVFSNCLRSSGRTGIIASEEEDVPVAVEESYSGNYVVVFDPLDGSSNIDAAVSTGSIFGIYSPNDECIVDDSDDISALGSEEQRCIVNVCQPGNNLLAAGYCMYSSSVIFVLTLGKGVFSFTLDPMYGEFVLTQENIEIPKAGRIYSFNEGNYQMWDDKLKKYIDDLKDPGPTGKPYSARYIGSLVGDFHRTLLYGGIYGYPRDAKSKNGKLRLLYECAPMSFIVEQAGGKGSDGHSRVLDIQPTEIHQRVPLYIGSTEEVEKLEKYLA
notes: Fructose-1,6-bisphosphatase 1, chloroplastic (cFBP1), Arabidopsis thaliana, gene At3g54050; ca. 40 kDa on SDS-PAGE; numbers count on: the mature protein; The number of chains depends on pH: tetramer at pH 7.0, dimer at pH 8.3, mainly dimer at pH 7.8 when fresh; Expressed from pDEST17, which to my knowledge adds an N-terminal His6; No step to cleave the tag is described; also called WT cFBP1; WT
- stoichiometry N [1]: 4
- stoichiometry N [2]: 2

B2: recombinant mature C95S variant of fructose-1,6-bisphosphatase 1 (cFBP1) of Arabidopsis (enzyme, Arabidopsis thaliana, UniProt P25851 60-417, looked up)
chain: B1 chain with C95S
notes: Fructose-1,6-bisphosphatase 1, chloroplastic (cFBP1), Arabidopsis thaliana, gene At3g54050; Cys95 replaced by Ser; numbers count on: the mature protein; The number of chains depends on pH: tetramer at pH 7.0, dimer at pH 8.3, mainly tetramer at pH 7.8; Expressed from pDEST17, which to my knowledge adds an N-terminal His6; No step to cleave the tag is described; also called C95S cFBP1; cFBP1 C95S
- stoichiometry N [1]: 4
- stoichiometry N [2]: 2
